Test results as given in the supplement of paper PMC6757056.
± gives the standard deviation of the averaged measurements.

B1: library; a variant is named by its letters at N, in order (parent)
chain: GCUGUCACCGGUGUAUUACCCUAGUGGUCGACCGGUCUGAUGAGUCUNNNNNNAGACGAAACAGC

Key:
hypoxanthine [1] = variants of: B1; experiment: normalized RNA/DNA level with ligand (relative to sTRSVctl = 100) (log10 (% of sTRSVctl)); ligand: hypoxanthine (xanthine aptamer); higher = less ribozyme self-cleavage, higher mRNA level; conditions: ligand concentration (+) RNA-Seq: 5 mM, HEK293T, reporter: mCherry (pCS4076), ligand present: yes
Procedure, shortened: (§1)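 For each 6-well well, 4 µg of library plasmid encoding mCherry-linked ribozyme switches, or eGFP-linked ones in some ligand experiments, was transfected into HEK293T. Any ligand was added 1 h before transfection, and RNA was extracted with EDTA 72 h after it, then reverse-transcribed, amplified, barcoded and sequenced. RNA level was obtained by dividing RNA reads by DNA reads, normalizing to a spiked-in non-cleaving sequence or to the top sequences, then scaling and log-transforming. The top set was 25 sequences, scaling was ×100 with log10, and ≥100 DNA reads were required.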

hypoxanthine [2] = variants of: B1; experiment: normalized RNA/DNA level without ligand (relative to sTRSVctl = 100) (log10 (% of sTRSVctl)); ligand: hypoxanthine (xanthine aptamer); higher = less ribozyme self-cleavage, higher mRNA level; conditions: HEK293T, reporter: mCherry (pCS4076), ligand present: no
Procedure, shortened: as §1

Variant | normalized RNA/DNA level with ligand (log10) (hypoxanthine [1]) | normalized RNA/DNA level without ligand (log10) (hypoxanthine [2])
CCCAUG | 1.933 ± 0.0045 | 1.81 ± 0.048
CCCAUU | 2 ± 0.03 | 1.927 ± 0.0023
CCCAUA | 1.9 ± 0.06 | 1.89 ± 0.11
ACAUCC | 1.98 ± 0.049 | 1.931 ± 0.0044
ACAUCU | 1.97 ± 0.024 | 1.87 ± 0.073
ACAUCA | 1.96 ± 0.046 | 1.91 ± 0.029
ACCACG | 1.91 ± 0.032 | 1.67 ± 0.023
ACCACA | 1.94 ± 0.044 | 1.902 ± 0.0069
ACCACC | 2.012 ± 0.02 | 1.927 ± 0.0086
ACCACU | 1.96 ± 0.023 | 1.92 ± 0.048
CCCACG | 1.917 ± 0.019 | 1.83 ± 0.029
CCCACU | 1.96 ± 0.037 | 1.87 ± 0.022
CCCACC | 2.01 ± 0.063 | 1.96 ± 0.032
GCAUGU | 1.9 ± 0.03 | 1.68 ± 0.043
GCAUGA | 1.94 ± 0.042 | 1.71 ± 0.029
GCAUCC | 1.86 ± 0.069 | 1.82 ± 0.025
GCAUCU | 1.98 ± 0.039 | 1.87 ± 0.004
GCAUCA | 1.94 ± 0.041 | 1.89 ± 0.035
CCAUCA | 1.97 ± 0.056 | 2.01 ± 0.049
CCAUCU | 2.036 ± 0.0026 | 1.951 ± 0.015
CCAUCG | 1.91 ± 0.024 | 1.79 ± 0.019
CCAUCC | 2 ± 0.087 | 1.975 ± 0.015
CCAGGC | 1.97 ± 0.041 | 1.86 ± 0.061
CCAGGU | 1.99 ± 0.067 | 1.833 ± 0.0077

Variant | normalized RNA/DNA level with ligand (log10) (hypoxanthine [1]) | normalized RNA/DNA level without ligand (log10) (hypoxanthine [2])
CCAGGG | 1.89 ± 0.11 | 1.37 ± 0.044
CCAGGA | 1.97 ± 0.033 | 1.83 ± 0.022
GCAGUA | 1.948 ± 0.012 | 1.772 ± 0.0069
GCAGUU | 1.9707 ± 0.00023 | 1.855 ± 0.015
UCCAAU | 1.94 ± 0.021 | 1.79 ± 0.018
UCCAAC | 2 ± 0.021 | 1.9 ± 0.033
CCAUUA | 1.929 ± 0.017 | 1.84 ± 0.039
CCAUUU | 1.91 ± 0.021 | 1.86 ± 0.066
CCAUUG | 1.9 ± 0.056 | 1.8 ± 0.022
UCCAUU | 1.959 ± 0.0064 | 1.89 ± 0.05
UCCAUA | 1.899 ± 0.018 | 1.88 ± 0.024
GCCCAC | 1.92 ± 0.023 | 1.76 ± 0.028
GCCCAA | 1.94 ± 0.037 | 1.8 ± 0.021
CCAUAA | 1.914 ± 0.01 | 1.8 ± 0.031
CCAUAG | 1.894 ± 0.013 | 1.55 ± 0.06
UCCAGG | 1.9095 ± 0.00051 | 1.8002 ± 0.0018
UCCAGA | 1.93 ± 0.054 | 1.78 ± 0.048
UCCAGC | 2.03 ± 0.048 | 1.9 ± 0.082
UCAUCC | 2.032 ± 0.0044 | 2 ± 0.049
UCAUCG | 1.99 ± 0.049 | 1.83 ± 0.058
UCAUCU | 2.026 ± 0.011 | 1.99 ± 0.059
GCAUAG | 1.862 ± 0.011 | 1.43 ± 0.078
GCAUAC | 1.904 ± 0.014 | 1.62 ± 0.049
UCCCAA | 1.918 ± 0.011 | 1.765 ± 0.0033

Variant | normalized RNA/DNA level with ligand (log10) (hypoxanthine [1]) | normalized RNA/DNA level without ligand (log10) (hypoxanthine [2])
GCAGCG | 1.97 ± 0.028 | 1.62 ± 0.042
GCAGCU | 2.014 ± 0.019 | 1.95 ± 0.038
UCAUGC | 1.95 ± 0.0044 | 1.882 ± 0.014
UCAUGG | 1.9 ± 0.034 | 1.69 ± 0.049
UCAUGU | 1.92 ± 0.038 | 1.628 ± 0.0081
ACAGUA | 1.908 ± 0.015 | 1.76 ± 0.029
ACAGUG | 1.85 ± 0.039 | 1.35 ± 0.021
CCAGCU | 1.99 ± 0.097 | 1.94 ± 0.045
CCAGCG | 1.917 ± 0.0021 | 1.82 ± 0.038
GCAUUU | 1.922 ± 0.019 | 1.88 ± 0.042
GCAUUC | 2 ± 0.023 | 1.81 ± 0.047
GCAUUA | 1.92 ± 0.023 | 1.877 ± 0.01
UCAGUG | 1.93 ± 0.061 | 1.77 ± 0.067
UCAGUC | 1.96 ± 0.056 | 1.9668 ± 0.0014
UCCACU | 1.957 ± 0.0089 | 1.99 ± 0.07
UCCACA | 1.96 ± 0.037 | 1.835 ± 0.0089
UCCACC | 2.02 ± 0.029 | 1.931 ± 0.018
ACAGGC | 1.89 ± 0.1 | 1.72 ± 0.038
UCAGGC | 1.96 ± 0.073 | 1.96 ± 0.03
UCAGGU | 1.87 ± 0.052 | 1.654 ± 0.0062
CCAGUC | 1.99 ± 0.038 | 1.974 ± 0.0045
CCAGUA | 1.94 ± 0.054 | 1.85 ± 0.038
CCAGUG | 1.93 ± 0.051 | 1.69 ± 0.077
CCAGUU | 2.01 ± 0.029 | 1.928 ± 0.0095

Variant | normalized RNA/DNA level with ligand (log10) (hypoxanthine [1]) | normalized RNA/DNA level without ligand (log10) (hypoxanthine [2])
ACAGCU | 1.92 ± 0.027 | 1.87 ± 0.033
ACAGCA | 1.94 ± 0.032 | 1.81 ± 0.028
ACAGCC | 1.97 ± 0.021 | 1.919 ± 0.01
GCAGGC | 1.861 ± 0.0028 | 1.65 ± 0.036
GCAGGU | 1.93 ± 0.031 | 1.73 ± 0.056
UCAUAU | 1.88 ± 0.029 | 1.77 ± 0.041
ACAUAU | 1.89 ± 0.072 | 1.6935 ± 0.0011
ACAUAC | 1.94 ± 0.034 | 1.823 ± 0.015
CCCCAC | 1.987 ± 0.018 | 1.9 ± 0.073
ACCAAG | 1.89 ± 0.088 | 1.5 ± 0.098
CCAUGC | 1.95 ± 0.051 | 1.88 ± 0.069
CCAUGU | 1.913 ± 0.013 | 1.828 ± 0.016
CCCAGG | 1.934 ± 0.018 | 1.83 ± 0.019
CCCAGA | 1.93 ± 0.048 | 1.83 ± 0.046
CCCAGU | 1.934 ± 0.0021 | 1.89 ± 0.032
CCCAGC | 1.999 ± 0.0073 | 1.877 ± 0.013
GCCAGC | 1.97 ± 0.047 | 1.81 ± 0.055
GCCAGA | 1.909 ± 0.0037 | 1.72 ± 0.056
GCCAGU | 1.92 ± 0.06 | 1.79 ± 0.046
GCCAGG | 1.872 ± 0.0046 | 1.43 ± 0.1
GCCAUU | 1.96 ± 0.013 | 1.918 ± 0.01
UCAUUC | 2.0015 ± 0.00059 | 1.9887 ± 0.00019
UCAUUA | 1.927 ± 0.0081 | 1.884 ± 0.0033
UCAUUG | 1.91 ± 0.026 | 1.72 ± 0.043

Variant | normalized RNA/DNA level with ligand (log10) (hypoxanthine [1]) | normalized RNA/DNA level without ligand (log10) (hypoxanthine [2])
GCCACA | 1.958 ± 0.0033 | 1.871 ± 0.0054
GCCACU | 1.99 ± 0.065 | 1.965 ± 0.0028
GCCACC | 1.905 ± 0.011 | 1.834 ± 0.0019
GCCACG | 1.905 ± 0.0023 | 1.656 ± 0.0069
ACCAUG | 1.91 ± 0.02 | 1.571 ± 0.013
CCCAAC | 1.96 ± 0.072 | 1.87 ± 0.023
CCCAAU | 1.93 ± 0.026 | 1.83 ± 0.04
ACCAGC | 1.993 ± 0.0011 | 1.94 ± 0.043
ACCAGA | 1.952 ± 0.009 | 1.77 ± 0.024
ACCAGG | 1.832 ± 0.015 | 1.44 ± 0.064
UCAGCU | 1.99 ± 0.03 | 1.948 ± 0.014
UCAGCA | 1.99 ± 0.021 | 1.88 ± 0.03
UCAGCC | 2.04 ± 0.02 | 1.997 ± 0.0026
ACCCAA | 1.896 ± 0.013 | 1.801 ± 0.013
ACAUUA | 1.926 ± 0.0045 | 1.85 ± 0.036
ACAUUU | 1.9 ± 0.04 | 1.796 ± 0.01
ACAUUG | 1.91 ± 0.057 | 1.53 ± 0.043
ACAUGC | 1.914 ± 0.015 | 1.77 ± 0.024
GCCAAC | 1.927 ± 0.014 | 1.74 ± 0.039
GCCAAU | 1.95 ± 0.053 | 1.798 ± 0.0018
